{"source": "patent US20250019465A1", "about": "“COMPOSITIONS AND METHODS FOR RARE HEPARAN SULFATE GLYCAN-TARGETED CANCER TREATMENT” (THE BOARD OF REGENTS OF THE UNIVERSITY OF TEXAS SYSTEM, priority 2021, published 2025)", "key": {"DC-HIL-Fc": {"system": "DC-HIL-Fc", "test": "DC-HIL-Fc binding to HS oligosaccharide microarray", "conditions": "DC-HIL-Fc 10 mg/ml, visualized by Cy-3, FIG. 1B", "experimental": "Various HS oligosaccharides (4-8-mers of HS disaccharide) were imprinted on microarray (Gycan Therapeutics Inc). These glycans were chosen based on sulfation patterns in mammalian cells (FIG. 1A). DC-HIL-Fc (10 mg/ml) was applied and then hybridized to the microaway and visualized by Cy-3 (mean±SD, n=6). […] SVEC mouse endothelial cells or activated T-cells were then incubated with DC-HIL-Fc (10 mg/ml) plus indicated oligoglycans, and DC-HIL binding was fluorescently stained with anti-Fc Ab and FACS analysis. FIG. 1C provides histograms showing binding of Fc control (blue) or DC-HIL-Fc (red), respectively."}, "[1]": {"system": "DC-HIL-induced angiogenesis", "test": "Matrigel plug assay of DC-HIL-induced angiogenesis", "type": "in vivo, mice", "conditions": "DC-HIL-Fc 200 nM with 10× molecular excess of glycan in matrigel, s.c., 2 weeks", "experimental": "In order to test the role rHS (Glycan #12) plays in controlling angiogenesis, DC-HIL-Fc (DCH) or Fc (200 nM) was mixed with 10× molecular excess of Glycan #3 or Glycan #12 (See FIG. 1A) and added to matrigel, and implanted s.c. into mice; 2 weeks later, plugs were excised and observed for blood vessels under microscope. Representative photos are shown (FIG. 9A). Plugs were quantified for Hb content (FIG. 9B). Red-dashed line indicates Hb level in Fc-control plug. Data are shown average±SD, n=4."}, "B16 melanoma cells [2]": {"system": "B16 melanoma cells", "test": "B16 melanoma s.c. tumor, intra-tumoral glycan injection", "type": "in vivo, B6 mice", "experimental": "(§1) B16 melanoma cells (5×10^5 cells/mouse) were implanted s.c. into B6 mice (n=4); on day 6, 1 mg of Glycan #3 (G3) or Glycan #12 (G12, see FIG. 1A) was injected intra-tumorally 5 times every 2 days. Tumor volume was measured (FIG. 10A). On day 17, tumors (photos of 2 representatives) were excised. […] Similar experiments were performed with RenCa kidney cancer in BALB/c mice and data are shown in FIG. 10C (tumor volume) and 10D (expression of angiogenic factors). Data shown is representative of 2 experiments. *p<0.0001."}, "RenCa kidney cancer": {"system": "RenCa kidney cancer", "test": "RenCa kidney cancer tumor, intra-tumoral glycan injection", "type": "in vivo, BALB/c mice", "experimental": "as §1"}, "[3]": {"test": "ELISA: DC-HIL-Fc binding to Glycan #12-coated wells with increasing dose of 1A7 SdAb", "conditions": "DC-HIL-Fc 1 mg/ml, increasing dose of 1A7 SdAb, FIG. 3D", "experimental": "SdAbs were obtained as described in Example 2. All SdAb clones were purified from DNA-transfected CHO cells. […] Biotinylated Glycan #12 (0.5 mg/ml) was immobilized to ELISA wells precoated with streptavidin (1 mg/ml) and incubated with increasing doses of 1A7 SdAb (FIG. 3A), FGF2 (negative control, FIG. 3B) and VEGF (positive control, FIG. 3C). After incubating for 1 h, wells were washed and binding measured by anti-c-myc Ab (OD450); SdAb has the C-terminal c-myc tag. In FIG. 3D, DC-HIL-Fc (1 mg/ml) was incubated with Glycan #12-coated wells, with increasing dose of 1A7 SdAb. % inhibition is shown. […] In FIG. 3E: FGF2 or VEGF (0.25 or 0.5 mg/ml) was added to Glycan #12-wells with 0.5 mg/ml of 1A7 or control SdAb (Ctrl), which is specific for KLH. % inhibition is shown. To examine the expression of the 1A7 epitope, immortalized murine […] cells (SVEC) were treated with 50 mM Sodium Cholate (red histogram) or untreated (Blue). Next day, cells were analyzed by FACS for expression of 1A7 epitope (FIG. 3F). […] FIG. 3H summarizes all data from experiments of binding/inhibition and expression analysis on different tumor lines. “Block DC-HIL (or VEGF or FGF2)” means blocking of binding to Glycan #12."}, "[4]": {"test": "HS glycan microarray analysis of 1A7 SdAb (53 glycan compounds)", "type": "binding", "conditions": "1A7 SdAb 10 μg, anti-c-myc label, FIG. 4", "experimental": "1A7 SdAb (10 μg) was hybridized with HS glycan microarray consisting of 53 glycan compounds (Glycan Therapeutics Inc) and fluorescently labeled with anti-c-myc. Hybridized arrays were analyzed for fluorescence intensity (U); average±sd, n=100). SdAb has the C-terminal c-myc tag."}, "B16 melanoma cells [5]": {"system": "B16 melanoma cells", "test": "B16 melanoma s.c. tumor growth, i.p. 1A7 or KLH Ab", "type": "in vivo, mice", "conditions": "10 mg/mouse i.p. every 2 days 5× from day 6, vs KLH Ab", "experimental": "(§2) On day 6 after implantation s.c. of B16 melanoma cells (2×10^5 cells/mouse), mice were treated i.p. with 1A7 or KLH Ab (10 mg/mouse, every 2 days, 5×, shown by reverse arrows). In separate experiments, tumor free mice were injected intravenously (i.v) with 1A7 or KLH (10 mg/mouse) either one day before (d-1) or one day after (d1) intravenous (i.v) injection with B16 or LL2 cells (2×10^5 cells/mouse, n=5). On day 12 (for mice injected with B16 cells) or day 18 (for mice injected with LL2 cells), the number of GFP+ cells in 5×10^5 lung cells was determined via FACS. FIG. 11C-11E summarize numbers of positive cells in each condition."}, "B16 cells": {"system": "B16 cells", "test": "Experimental lung metastasis after i.v. injection of B16 cells", "type": "in vivo, mice", "experimental": "as §2\n1A7 SdAb was compared to other standard treatments (e.g., anti-PDL1 antibody, anti-VEGFR2 antibodies) for its ability to inhibit metastasis using the B16 cell model. Mice (n=5) were injected i.v. with KLH, 1A7 SdAb (10 mg/mouse), anti-DC-HIL (DCH), anti-PDL1 (PL1), anti-VEGFR2 (VER) or combined PL1/VER (PL/VE) mAb ([…]). Next day, mice were given i.v. injection of 2×10^5 B16 cells/mouse. Note: Ab injection was a one-time treatment. On Day 14, lung was enumerated by FACS for GFP^+ cells (FIG. 12A) and the number in 5×10^5 lung cells (average±sd, n=5) are summarized (FIG. 12B). *p<0.0001; **p=0.007. Data are representative of 2 separate experiments. […]"}, "LL2 cells": {"system": "LL2 cells", "test": "Experimental lung metastasis after i.v. injection of LL2 cells", "type": "in vivo, mice", "conditions": "day 18, vs KLH", "experimental": "as §2"}, "Pan-T cells": {"system": "Pan-T cells", "test": "Anti-CD3-induced Pan-T cell proliferation (3H-thymidine) on wells coated with 1A7", "type": "cell-based, human", "conditions": "wells pre-coated with 4 mg/well Ab plus increasing doses of anti-CD3 Ab, 2 days, vs KLH control Ab", "experimental": "The ability of 1A7 to affect induction of T-cell activation using anti-CD3 antibodies was tested. Pan-T cells isolated from blood sample of a healthy donor were incubated with wells (2×10^5 cells/well) pre-coated with 1A7 or KLH control Ab (4 mg/well) plus increasing doses of anti-CD3 Ab. After incubation for 2 days, ^3H-thymidine was pulsed for 16 h, harvested, and counted for cpm in cells. […] Data are shown average±SD, n=3"}, "[6]": {"system": "human SK-MEL-28 melanoma cell line", "test": "Lung metastasis of human SK-MEL-28 melanoma cells in xenograft NSG mice", "type": "in vivo", "conditions": "single i.v. injection 10 mg/mouse one day before SK-MEL-28 i.v., Day 14, vs KLH", "experimental": "A final experiment was performed to determine the effect of an anti-rHS antibody on human lung metastasis in a xenograft mouse model. Immuno-deficient NSG mice (n=5) were injected i.v. with KLH or 1A7 SdAb (10 mg/mouse). Next day, mice were given i.v. injection of 2×10^5 human SK-MEL-28 melanoma cell line. Note: Ab injection is just one time. On Day 14, lung was enumerated by FACS for GFP^+ cells (FIG. 16A) and the number in 5×10^5 lung cells (average±sd, n=5) are summarized (FIG. 16B). *p<0.0001. Data are representative of 2 separate experiments. 1A7 single injection decreased human melanoma in lung by 84% (FIGS. 16A and 16B)."}, "LacZ-LL2 cells": {"system": "LacZ-LL2 cells", "test": "Spontaneous lung metastasis from resected s.c. LacZ-LL2 primary tumor", "type": "in vivo, mice", "conditions": "Ab injection every 3 days after tumor resection, lungs 2 weeks later", "experimental": "Briefly, mice were implanted s.c. with LacZ-LL2 cells, 2 weeks later, tumor was resected surgically. Mice were then treated with Ab injection every 3 days. 2 weeks later, lungs were excised and stained with X-gal (labeled LacZ-LL2 cells in blue) and blue stains were counted. FIG. 17B provides representative images of lung sections stained with X-gal, showing by green or red arrows. The number of tumor cells per field of view (FOV) were counted and plotted in FIG. 17C alongside and average of 5 FOVs. Each dot represents an individual mouse."}, "B16F10 melanoma cells": {"system": "B16F10 melanoma cells", "test": "B16F10 melanoma s.c. tumor growth and tumor IHC, rHS Ab vs PD1 Ab", "type": "in vivo, B57BL/6 mice", "experimental": "Antitumor activity of rHS Ab to B16 melanoma was examined. Briefly, B16F10 melanoma cells (5×10^5 cells/mouse) were implanted s.c. into B57BL/6 mice (n=5). Six days later, mice were treated with i.p. injection of Ab every 2 days; 1A7 rHS Ab (20 mg/mouse), PD1 ([…]), rHS/PD1 (20 mg and 200 mg, respectively) or control (Ctrl) Ab ([…]). Tumor volume was measured every 2 days (FIG. 20A). On day 15, all mice were euthanized, tumors were excised and IHC-stained with marker Ab (CD4, CD8, CD11b, and CD31) (FIG. 20B). Positive staining is assayed by % positively stained areas in 4.5 mm2 view (mean±sd, n=5). […] Thus, rHS Ab inhibited melanoma growth, reversing immune suppression and tumor angiogenesis."}}}
{"molecule": "GlcNS6S-GlcA-GlcNS6S-IdoA2S-GlcNS6S-IdoA2S-GlcNS6S-GlcA [Glycan #12]", "values": [{"measurement": "binding of DC-HIL-Fc to each glycan as average RFU", "setting": "DC-HIL-Fc", "result": "strongest binding"}, {"measurement": "DC-HIL-induced angiogenesis (blood vessels, Hb content of plugs)", "setting": "[1]", "result": "completely abrogated"}, {"measurement": "Tumor volume (growth of melanoma)", "setting": "B16 melanoma cells [2]; B16 s.c. in B6 mice, 1 mg glycan intra-tumorally 5 times every 2 days from day 6", "result": "markedly attenuated growth"}, {"measurement": "tumor expression of angiogenic factors (qRT-PCR relative to GAPDH)", "setting": "B16 melanoma cells [2]; B16 tumors excised on day 17", "result": "inhibited tumor expression of angiogenic factors"}, {"measurement": "Tumor volume (growth of kidney cancer)", "setting": "RenCa kidney cancer; RenCa in BALB/c mice, intra-tumoral glycan", "result": "markedly attenuated growth"}, {"measurement": "tumor expression of angiogenic factors (qRT-PCR relative to GAPDH)", "setting": "RenCa kidney cancer; RenCa tumors", "result": "inhibited tumor expression of angiogenic factors"}]}
{"molecule": "1A7: single domain antibody clone, single variable heavy chain (VH), SEQ ID NO: 18, specific for rare heparan sulfate glycan (Glycan #12) (protein, Synthetic construct - Clone 1A7) VHH: QVQLLESGGGLVQPGGSLRLSCAASGVKVSTKSMGWVRQAPGKGLEWVSTIARNDGSTYYADSVKGRFTISRDNSKNTLYLQMNSLRAEDTAVYYCARMKKNGGSKRQPHIRSWGQGTLVTVSS", "values": [{"measurement": "competition with DC-HIL-Fc for binding to Glycan #12 (% inhibition)", "setting": "[3]", "result": "compete for a similar binding site"}, {"measurement": "affinity for Glycan #12 (fluorescence intensity on HS glycan microarray)", "setting": "[4]", "result": "robust affinity"}, {"measurement": "Tumor volume (tumor growth)", "setting": "B16 melanoma cells [5]", "result": "significantly reduced"}, {"measurement": "lung metastasis: number of GFP+ cells in 5×10^5 lung cells", "setting": "B16 cells; B16 i.v., single 10 mg/mouse i.v. one day before (d-1), day 12, vs KLH", "result": "significantly reduced"}, {"measurement": "growth of B16 metastasis (GFP+ cells in 5×10^5 lung cells) compared to other treatments", "setting": "B16 cells; single i.v. 10 mg/mouse one day before B16 i.v., Day 14, comparators anti-PDL1, anti-VEGFR2 200 mg/mouse", "result": "inhibited growth of B16 metastasis, more than currently FDA-approved drugs"}, {"measurement": "lung metastasis: number of GFP+ cells in 5×10^5 lung cells", "setting": "LL2 cells; single 10 mg/mouse i.v. one day after (d1)", "result": "significantly reduced"}, {"measurement": "lung metastasis: number of GFP+ cells in 5×10^5 lung cells", "setting": "LL2 cells; single 10 mg/mouse i.v. one day before (d-1)", "result": "significantly reduced"}, {"measurement": "T cell replication (activation), 3H-thymidine cpm", "setting": "Pan-T cells", "result": "significantly less replication"}, {"measurement": "decrease of human melanoma in lung (GFP+ cells in 5×10^5 lung cells)", "setting": "[6]", "result": 84, "unit": "%"}, {"measurement": "spontaneous lung metastasis (tumor cells per field of view, X-gal)", "setting": "LacZ-LL2 cells", "result": "significantly reduced"}, {"measurement": "Tumor volume (melanoma growth) compared with PD1 Ab", "setting": "B16F10 melanoma cells; 20 mg/mouse i.p. every 2 days from day 6, PD1 200 mg/mouse", "result": "better outcomes than PD1 Ab"}, {"measurement": "tumor density of CD4 T cells (% positively stained areas, IHC)", "setting": "B16F10 melanoma cells; tumors excised day 15", "result": "increased tumor densities"}, {"measurement": "tumor density of CD8 T cells (% positively stained areas, IHC)", "setting": "B16F10 melanoma cells; tumors excised day 15", "result": "increased tumor densities"}, {"measurement": "tumor density of CD11b (% positively stained areas, IHC)", "setting": "B16F10 melanoma cells; tumors excised day 15", "result": "decreased densities"}, {"measurement": "tumor density of microvacuoles (CD31, % positively stained areas, IHC)", "setting": "B16F10 melanoma cells; tumors excised day 15", "result": "decreased densities"}]}
